# Source: IntAct's records for PubMed 18769030
# B1: Solute carrier family 12 member 5 (Rattus norvegicus (Rat)), Q63633 (parent)
# chain: MSRRFTVTSLPPAASAASADPESRRHSVADPRRLPREDVKGDGNPKESSPFINSTDTEKGREYDGRNMALFEEEMDTSPMVSSLLSGLANYTNLPQGSKEHEEAENNEGGKKKPVQAPRMGTFMGVYLPCLQNIFGVILFLRLTWVVGIAGIMESFCMVFICCSCTMLTAISMSAIATNGVVPAGGSYYMISRSLGPEFGGAVGLCFYLGTTFAGAMYILGTIEILLAYLFPAMAIFKAEDASGEAAAMLNNMRVYGTCVLTCMATVVFVGVKYVNKFALVFLGCVILSILAIYAGVIKSAFDPPNFPICLLGNRTLSRHGFDVCAKLAWEGNETVTTRLWGLFCSSRLLNATCDEYFTRNNVTEIQGIPGAASGLIKENLWSSYLTKGVIVERRGMPSVGLADGTPVDMDHPYVFSDMTSYFTLLVGIYFPSVTGIMAGSNRSGDLRDAQKSIPTGTILAIATTSAVYISSVVLFGACIEGVVLRDKFGEAVNGNLVVGTLAWPSPWVIVIGSFFSTCGAGLQSLTGAPRLLQAISRDGIVPFLQVFGHGKANGEPTWALLLTACICEIGILIASLDEVAPILSMFFLMCYMFVNLACAVQTLLRTPNWRPRFRYYHWTLSFLGMSLCLALMFICSWYYALVAMLIAGLIYKYIEYRGAEKEWGDGIRGLSLSAARYALLRLEEGPPHTKNWRPQLLVLVRVDQDQNVVHPQLLSLTSQLKAGKGLTIVGSVLEGTFLDNHPQAQRAEESIRRLMEAEKVKGFCQVVISSNLRDGVSHLIQSGGLGGLQHNTVLVGWPRNWRQKEDHQTWRNFIELVRETTAGHLALLVTKNVSMFPGNPERFSEGSIDVWWIVHDGGMLMLLPFLLRHHKVWRKCKMRIFTVAQMDDNSIQMKKDLTTFLYHLRITAEVEVVEMHESDISAYTYEKTLVMEQRSQILKQMHLTKNEREREIQSITDESRGSIRRKNPANTRLRLNVPEETACDNEEKPEEEVQLIHDQSAPSCPSSSPSPGEEPEGEGETDPEKVHLTWTKDKSAAQKNKGPSPVSSEGIKDFFSMKPEWENLNQSNVRRMHTAVRLNEVIVNKSRDAKLVLLNMPGPPRNRNGDENYMEFLEVLTEQLDRVMLVRGGGREVITIYS
# Variants of: B1
# Settings: with mycb2_mouse Mycbp2, Q7TPH6
# Chain of mycb2_mouse Mycbp2, Q7TPH6 (Q7TPH6 whole entry): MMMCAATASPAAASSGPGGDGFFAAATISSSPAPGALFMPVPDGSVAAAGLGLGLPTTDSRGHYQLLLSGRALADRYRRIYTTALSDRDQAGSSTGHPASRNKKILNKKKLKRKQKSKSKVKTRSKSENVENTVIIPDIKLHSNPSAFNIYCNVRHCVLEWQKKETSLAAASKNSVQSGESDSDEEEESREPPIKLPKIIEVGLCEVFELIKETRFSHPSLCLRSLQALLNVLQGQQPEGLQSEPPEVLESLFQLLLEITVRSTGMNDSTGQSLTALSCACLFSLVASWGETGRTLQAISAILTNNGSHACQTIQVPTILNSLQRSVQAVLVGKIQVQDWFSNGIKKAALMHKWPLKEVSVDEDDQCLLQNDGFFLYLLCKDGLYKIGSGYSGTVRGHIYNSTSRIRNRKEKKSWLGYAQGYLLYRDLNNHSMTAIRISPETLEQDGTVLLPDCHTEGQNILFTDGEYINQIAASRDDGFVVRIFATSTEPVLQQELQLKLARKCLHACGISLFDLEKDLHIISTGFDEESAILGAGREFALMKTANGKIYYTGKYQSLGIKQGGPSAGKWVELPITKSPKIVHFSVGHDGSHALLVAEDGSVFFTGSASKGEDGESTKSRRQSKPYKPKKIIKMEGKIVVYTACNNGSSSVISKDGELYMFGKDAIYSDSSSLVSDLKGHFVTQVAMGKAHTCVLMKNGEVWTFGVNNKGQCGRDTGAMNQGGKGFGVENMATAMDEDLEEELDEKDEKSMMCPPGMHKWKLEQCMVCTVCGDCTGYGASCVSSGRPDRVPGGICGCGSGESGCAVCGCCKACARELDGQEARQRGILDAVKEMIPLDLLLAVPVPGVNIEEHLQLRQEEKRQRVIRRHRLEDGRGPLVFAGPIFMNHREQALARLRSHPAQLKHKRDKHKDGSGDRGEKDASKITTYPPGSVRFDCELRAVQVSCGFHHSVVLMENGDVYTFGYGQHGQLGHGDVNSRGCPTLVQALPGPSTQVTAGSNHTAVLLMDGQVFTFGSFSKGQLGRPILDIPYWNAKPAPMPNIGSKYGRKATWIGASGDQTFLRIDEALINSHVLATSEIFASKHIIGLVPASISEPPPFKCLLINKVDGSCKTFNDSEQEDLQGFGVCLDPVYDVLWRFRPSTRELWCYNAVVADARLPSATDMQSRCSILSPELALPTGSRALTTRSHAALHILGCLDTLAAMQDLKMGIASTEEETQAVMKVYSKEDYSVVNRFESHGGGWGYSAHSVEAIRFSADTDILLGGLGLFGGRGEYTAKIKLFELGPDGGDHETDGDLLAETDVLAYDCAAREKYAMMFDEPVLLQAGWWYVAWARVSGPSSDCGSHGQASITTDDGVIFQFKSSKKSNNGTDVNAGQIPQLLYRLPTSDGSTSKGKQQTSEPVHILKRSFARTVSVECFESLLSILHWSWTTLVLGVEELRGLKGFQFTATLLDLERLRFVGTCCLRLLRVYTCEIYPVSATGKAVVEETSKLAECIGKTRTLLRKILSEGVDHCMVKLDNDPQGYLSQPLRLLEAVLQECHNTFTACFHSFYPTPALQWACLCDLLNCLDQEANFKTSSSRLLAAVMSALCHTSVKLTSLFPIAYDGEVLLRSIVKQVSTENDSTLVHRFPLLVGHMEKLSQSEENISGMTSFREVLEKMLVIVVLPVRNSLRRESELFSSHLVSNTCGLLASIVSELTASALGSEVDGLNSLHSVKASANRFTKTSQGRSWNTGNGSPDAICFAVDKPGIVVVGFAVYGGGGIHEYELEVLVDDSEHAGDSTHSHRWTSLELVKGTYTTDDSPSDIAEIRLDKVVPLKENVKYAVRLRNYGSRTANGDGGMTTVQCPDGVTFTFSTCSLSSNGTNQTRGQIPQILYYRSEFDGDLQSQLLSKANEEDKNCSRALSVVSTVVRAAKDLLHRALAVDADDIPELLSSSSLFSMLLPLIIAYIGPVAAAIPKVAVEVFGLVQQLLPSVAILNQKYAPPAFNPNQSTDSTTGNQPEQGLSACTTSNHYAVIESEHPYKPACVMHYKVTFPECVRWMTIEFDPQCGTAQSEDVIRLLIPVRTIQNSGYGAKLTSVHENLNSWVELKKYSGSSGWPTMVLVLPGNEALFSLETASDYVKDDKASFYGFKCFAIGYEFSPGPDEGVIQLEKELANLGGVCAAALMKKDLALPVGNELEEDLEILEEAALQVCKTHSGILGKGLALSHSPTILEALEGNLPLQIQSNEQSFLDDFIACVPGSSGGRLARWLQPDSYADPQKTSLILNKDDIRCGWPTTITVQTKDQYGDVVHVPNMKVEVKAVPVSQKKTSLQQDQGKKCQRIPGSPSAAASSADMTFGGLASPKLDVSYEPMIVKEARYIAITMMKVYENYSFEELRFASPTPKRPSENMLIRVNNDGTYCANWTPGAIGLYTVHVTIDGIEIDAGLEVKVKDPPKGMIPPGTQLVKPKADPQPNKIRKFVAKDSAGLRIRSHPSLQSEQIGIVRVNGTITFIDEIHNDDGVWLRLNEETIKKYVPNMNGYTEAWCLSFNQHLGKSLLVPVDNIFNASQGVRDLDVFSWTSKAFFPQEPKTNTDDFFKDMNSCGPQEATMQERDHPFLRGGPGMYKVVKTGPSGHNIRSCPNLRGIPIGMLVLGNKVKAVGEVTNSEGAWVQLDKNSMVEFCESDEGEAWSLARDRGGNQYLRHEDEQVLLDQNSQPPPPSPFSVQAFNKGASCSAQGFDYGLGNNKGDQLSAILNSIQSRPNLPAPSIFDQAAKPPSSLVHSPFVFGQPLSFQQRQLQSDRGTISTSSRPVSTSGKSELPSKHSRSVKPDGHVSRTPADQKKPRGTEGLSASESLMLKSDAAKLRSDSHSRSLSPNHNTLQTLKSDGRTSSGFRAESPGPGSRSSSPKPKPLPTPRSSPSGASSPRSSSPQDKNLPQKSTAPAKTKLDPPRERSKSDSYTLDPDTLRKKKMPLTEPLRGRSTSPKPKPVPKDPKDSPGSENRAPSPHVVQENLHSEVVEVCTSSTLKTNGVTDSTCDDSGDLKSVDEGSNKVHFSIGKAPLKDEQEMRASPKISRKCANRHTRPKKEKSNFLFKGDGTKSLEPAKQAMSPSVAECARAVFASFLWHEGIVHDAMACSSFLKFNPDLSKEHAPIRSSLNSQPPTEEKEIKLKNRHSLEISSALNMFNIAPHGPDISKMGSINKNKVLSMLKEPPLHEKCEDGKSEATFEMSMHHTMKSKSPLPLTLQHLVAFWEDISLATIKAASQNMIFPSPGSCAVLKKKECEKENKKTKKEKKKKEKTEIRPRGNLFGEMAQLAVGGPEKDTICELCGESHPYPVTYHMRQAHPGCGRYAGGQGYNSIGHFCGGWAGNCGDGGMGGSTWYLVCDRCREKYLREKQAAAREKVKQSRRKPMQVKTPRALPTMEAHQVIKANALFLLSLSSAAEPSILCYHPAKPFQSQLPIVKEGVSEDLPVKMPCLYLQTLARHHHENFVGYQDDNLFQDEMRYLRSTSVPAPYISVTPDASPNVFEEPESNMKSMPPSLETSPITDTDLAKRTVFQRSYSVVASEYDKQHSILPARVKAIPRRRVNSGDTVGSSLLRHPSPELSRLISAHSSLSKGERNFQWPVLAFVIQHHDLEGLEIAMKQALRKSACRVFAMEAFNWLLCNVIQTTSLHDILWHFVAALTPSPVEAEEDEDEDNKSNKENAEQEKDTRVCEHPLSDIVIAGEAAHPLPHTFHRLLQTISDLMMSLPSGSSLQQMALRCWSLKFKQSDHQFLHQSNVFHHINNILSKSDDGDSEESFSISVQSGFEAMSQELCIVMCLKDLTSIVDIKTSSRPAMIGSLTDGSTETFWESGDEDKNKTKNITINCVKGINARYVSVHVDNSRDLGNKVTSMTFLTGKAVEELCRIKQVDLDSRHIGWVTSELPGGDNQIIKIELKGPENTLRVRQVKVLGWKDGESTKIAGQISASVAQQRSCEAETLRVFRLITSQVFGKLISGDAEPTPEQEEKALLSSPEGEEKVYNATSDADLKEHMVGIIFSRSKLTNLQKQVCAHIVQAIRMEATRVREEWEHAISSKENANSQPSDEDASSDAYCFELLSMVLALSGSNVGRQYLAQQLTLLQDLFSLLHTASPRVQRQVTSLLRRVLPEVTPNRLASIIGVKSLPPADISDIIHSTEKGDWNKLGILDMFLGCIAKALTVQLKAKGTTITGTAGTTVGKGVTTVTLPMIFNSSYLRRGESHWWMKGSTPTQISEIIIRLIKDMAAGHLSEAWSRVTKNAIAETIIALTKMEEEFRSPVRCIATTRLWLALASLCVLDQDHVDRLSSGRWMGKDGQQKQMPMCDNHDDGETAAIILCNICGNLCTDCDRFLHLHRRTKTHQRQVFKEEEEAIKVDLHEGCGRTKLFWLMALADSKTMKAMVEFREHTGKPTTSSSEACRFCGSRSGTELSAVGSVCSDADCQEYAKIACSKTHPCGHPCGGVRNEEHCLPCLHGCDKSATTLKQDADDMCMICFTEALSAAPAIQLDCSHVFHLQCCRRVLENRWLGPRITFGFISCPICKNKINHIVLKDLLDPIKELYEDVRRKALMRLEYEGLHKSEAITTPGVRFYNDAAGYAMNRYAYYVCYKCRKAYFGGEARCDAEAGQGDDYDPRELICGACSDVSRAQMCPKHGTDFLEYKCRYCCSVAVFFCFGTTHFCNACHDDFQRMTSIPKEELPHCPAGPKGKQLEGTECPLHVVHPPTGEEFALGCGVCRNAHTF
row,effect of a mutation on the interaction,Variant
1,disrupting interaction,R1104A
2,disrupting interaction,N1105E

# Variants of: B1
# Settings: with mycb2_mouse Mycbp2, Q7TPH6
# Remark: another data set of the same source
row,effect of a mutation on the interaction,Variant
1,decreasing interaction,R1104A
